In publication PMC8389370, “pUL21 is a viral phosphatase adaptor that promotes herpes simplex virus replication and spread” (PLoS Pathogens, 2021):

Target: T1, StrepII-CERT (human, UniProt Q9Y5P4-2 1-598, predominantly hyperphosphorylated (CERT^P); sites not given)
T1 construct: human CERT, UniProt Q9Y5P4-2, codon-optimised synthetic gene in pcDNA-SW; also called Strep-CERT; CERT^P; source: Freestyle 293F cells, transfected, purified (StrepTrap HP, SEC); not shown: StrepII-tag, N-terminal, kept
T1 sequence (looked up): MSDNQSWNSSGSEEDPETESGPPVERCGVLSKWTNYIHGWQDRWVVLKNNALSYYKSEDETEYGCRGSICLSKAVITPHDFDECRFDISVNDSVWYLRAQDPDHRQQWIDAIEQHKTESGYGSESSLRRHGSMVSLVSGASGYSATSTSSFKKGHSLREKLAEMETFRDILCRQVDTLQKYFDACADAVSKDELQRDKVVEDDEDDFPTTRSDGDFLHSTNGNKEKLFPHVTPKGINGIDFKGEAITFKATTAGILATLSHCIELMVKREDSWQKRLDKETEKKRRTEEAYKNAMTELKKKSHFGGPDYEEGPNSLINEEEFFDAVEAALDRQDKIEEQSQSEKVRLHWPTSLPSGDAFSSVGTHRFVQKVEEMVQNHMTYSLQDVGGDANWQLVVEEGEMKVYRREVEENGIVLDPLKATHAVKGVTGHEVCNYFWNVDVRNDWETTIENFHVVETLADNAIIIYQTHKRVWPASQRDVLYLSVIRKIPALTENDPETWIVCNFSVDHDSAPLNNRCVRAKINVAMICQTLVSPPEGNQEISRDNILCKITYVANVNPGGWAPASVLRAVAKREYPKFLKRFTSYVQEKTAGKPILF
Experiment: pull-down; pUL21-GST (1 μM) on glutathione magnetic beads, 5 μM purified prey, 60 min at room temperature, 20 mM Tris pH 8.5, 200 mM NaCl, 0.1% NP-40, 1 mM DTT, 1 mM EDTA; eluted with glutathione, Coomassie SDS-PAGE
Details: both partners purified

B1: pUL21-GST (natural protein)
chain: MELSYATTMHYRDVVFYVTTDRNRAYFVCGGCVYSVGRPCASQPGEIAKFGLVVRGTGPDDRVVANYVRSELRQRGLQDVRPIGEDEVFLDSVCLLNPNVSSELDVINTNDVEVLDECLAEYCTSLRTSPGVLISGLRVRAQDRIIELFEHPTIVNVSSHFVYTPSPYVFALAQAHLPRLPSSLEALVSGLFDGIPAPRQPLDAHNPRTDVVITGRRAPRPIAGSGAGSGGAGAKRATVSEFVQVKHIDRVGPAGVSPAPPPNNTDSSSLVPGAQDSAPPGPTLRELWWVFYAADRALEEPRADSGLTREEVRAVRGFREQAWKLFGSAGAPRAFIGAALGLSPLQKLAVYYYIIHRERRLSPFPALVRLVGRYTQRHGLYVPRPDDPVLADAINGLFRDALAAGTTAEQLLMFDLLPPKDVPVGSDVQADSTALLRFIESQRLAVPGGVISPEHVAYLGAFLSVLYAGRGRMSAATHTARLTGVTSLVLAVGDVDRLSAFDRGAAGAASRTRAAGYLDVLLTVRLARSQHGQSV
notes: HSV-1 strain KOS pUL21, UniProt F8RG07; the plasmid for the GST fusion is not described; also called Purified recombinant pUL21-GST; source: E. coli T7 Express lysY/Iq, purified (glutathione Sepharose 4B, SEC)
- binding result: binds
